According to US20140179604A1 (U S A REPRESENTED BY THE DEPARTMENT OF VETERANS AFFAIRS, published 2014):
Non-standard residues stand in square brackets, D forms with d. No end group written: not given here. *: point of attachment. Desaminotyrosyl = O=C(CCc1ccc(O)cc1)*; NMeY = CN[C@@H](Cc1ccc(O)cc1)C(=O)O; Agmatine = N=C(N)NCCCCN*; Nle = CCCC[C@H](N)C(=O)O; Orn = NCCC[C@H](N)C(=O)O; Abu = CC[C@H](N)C(=O)O; Ava = NCCCCC(=O)O

T1: GHRH receptor (membrane receptors of human anterior pituitary cells) (human, UniProt Q02643 23-423)
T1 construct: whole, on cells; Native receptor in a membrane fraction of purchased normal human pituitaries, not intact cells; also called hGHRH receptor; human pituitary membrane homogenates
T1 sequence (looked up): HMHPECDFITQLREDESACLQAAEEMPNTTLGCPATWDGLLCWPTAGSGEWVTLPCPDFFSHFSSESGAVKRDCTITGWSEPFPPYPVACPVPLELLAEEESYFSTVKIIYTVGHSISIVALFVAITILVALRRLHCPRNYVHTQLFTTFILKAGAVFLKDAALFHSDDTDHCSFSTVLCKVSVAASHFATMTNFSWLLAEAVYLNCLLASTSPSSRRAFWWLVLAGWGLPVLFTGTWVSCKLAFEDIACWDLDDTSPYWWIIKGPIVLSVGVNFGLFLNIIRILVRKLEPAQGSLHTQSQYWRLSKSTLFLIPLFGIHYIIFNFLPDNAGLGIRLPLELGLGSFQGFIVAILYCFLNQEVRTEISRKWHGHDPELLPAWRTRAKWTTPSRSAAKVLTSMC

B1: P-20351 [Ac-N-Me-Tyr^1, D-Ala^2, Gln^8, Orn^12, Abu^15, Orn^21, Nle^27, Asp^28, Agm^29]hGHRH(1-29)NH2 (peptide)
peptide: Ac-[NMeY][dA]DAIFTQSYR[Orn]VL[Abu]QLSAR[Orn]LLQDI[Nle]D[Agmatine]
SMILES: CCCC[C@H](NC(=O)[C@@H](NC(=O)[C@H](CC(=O)O)NC(=O)[C@H](CCC(N)=O)NC(=O)[C@H](CC(C)C)NC(=O)[C@H](CC(C)C)NC(=O)[C@H](CCCN)NC(=O)[C@H](CCCNC(=N)N)NC(=O)[C@H](C)NC(=O)[C@H](CO)NC(=O)[C@H](CC(C)C)NC(=O)[C@H](CCC(N)=O)NC(=O)[C@H](CC)NC(=O)[C@H](CC(C)C)NC(=O)[C@@H](NC(=O)[C@H](CCCN)NC(=O)[C@H](CCCNC(=N)N)NC(=O)[C@H](Cc1ccc(O)cc1)NC(=O)[C@H](CO)NC(=O)[C@H](CCC(N)=O)NC(=O)[C@@H](NC(=O)[C@H](Cc1ccccc1)NC(=O)[C@@H](NC(=O)[C@H](C)NC(=O)[C@H](CC(=O)O)NC(=O)[C@@H](C)NC(=O)[C@H](Cc1ccc(O)cc1)N(C)C(C)=O)[C@@H](C)CC)[C@@H](C)O)C(C)C)[C@@H](C)CC)C(=O)N[C@@H](CC(=O)O)C(=O)NCCCCNC(=N)N
notes: also called MR-351; Peptide 20351
B2: P-27408 [Dat^1, D-Ala^2, Gln^8, Orn^12, Abu^15, Orn^21, Nle^27, Asp^28]hGHRH(1-29)NH-CH3 (peptide)
peptide: [Desaminotyrosyl][dA]DAIFTQSYR[Orn]VL[Abu]QLSAR[Orn]LLQDI[Nle]DR-NHMe
SMILES: CCCC[C@H](NC(=O)[C@@H](NC(=O)[C@H](CC(=O)O)NC(=O)[C@H](CCC(N)=O)NC(=O)[C@H](CC(C)C)NC(=O)[C@H](CC(C)C)NC(=O)[C@H](CCCN)NC(=O)[C@H](CCCNC(=N)N)NC(=O)[C@H](C)NC(=O)[C@H](CO)NC(=O)[C@H](CC(C)C)NC(=O)[C@H](CCC(N)=O)NC(=O)[C@H](CC)NC(=O)[C@H](CC(C)C)NC(=O)[C@@H](NC(=O)[C@H](CCCN)NC(=O)[C@H](CCCNC(=N)N)NC(=O)[C@H](Cc1ccc(O)cc1)NC(=O)[C@H](CO)NC(=O)[C@H](CCC(N)=O)NC(=O)[C@@H](NC(=O)[C@H](Cc1ccccc1)NC(=O)[C@@H](NC(=O)[C@H](C)NC(=O)[C@H](CC(=O)O)NC(=O)[C@@H](C)NC(=O)CCc1ccc(O)cc1)[C@@H](C)CC)[C@@H](C)O)C(C)C)[C@@H](C)CC)C(=O)N[C@@H](CC(=O)O)C(=O)N[C@@H](CCCNC(=N)N)C(=O)NC
notes: also called MR-408; MR408
B3: P-27401 [Dat^1, D-Ala^2, Gln^8, Orn^12, Abu^15, Orn^21, Nle^27, Asp^28, D-Arg^29]hGHRH(1-29)NH-CH3 (peptide)
peptide: [Desaminotyrosyl][dA]DAIFTQSYR[Orn]VL[Abu]QLSAR[Orn]LLQDI[Nle]D[dR]-NHMe
SMILES: CCCC[C@H](NC(=O)[C@@H](NC(=O)[C@H](CC(=O)O)NC(=O)[C@H](CCC(N)=O)NC(=O)[C@H](CC(C)C)NC(=O)[C@H](CC(C)C)NC(=O)[C@H](CCCN)NC(=O)[C@H](CCCNC(=N)N)NC(=O)[C@H](C)NC(=O)[C@H](CO)NC(=O)[C@H](CC(C)C)NC(=O)[C@H](CCC(N)=O)NC(=O)[C@H](CC)NC(=O)[C@H](CC(C)C)NC(=O)[C@@H](NC(=O)[C@H](CCCN)NC(=O)[C@H](CCCNC(=N)N)NC(=O)[C@H](Cc1ccc(O)cc1)NC(=O)[C@H](CO)NC(=O)[C@H](CCC(N)=O)NC(=O)[C@@H](NC(=O)[C@H](Cc1ccccc1)NC(=O)[C@@H](NC(=O)[C@H](C)NC(=O)[C@H](CC(=O)O)NC(=O)[C@@H](C)NC(=O)CCc1ccc(O)cc1)[C@@H](C)CC)[C@@H](C)O)C(C)C)[C@@H](C)CC)C(=O)N[C@@H](CC(=O)O)C(=O)N[C@H](CCCNC(=N)N)C(=O)NC
notes: also called MR-401
B4: P-22326 [N-Me-Tyr^1, D-Ala^2, Gln^8, Orn^12, Abu^15, Orn^21, Nle^27, Asp^28, Apa^30]hGHRH(1-30)NH2 (peptide)
peptide: [NMeY][dA]DAIFTQSYR[Orn]VL[Abu]QLSAR[Orn]LLQDI[Nle]DR[Ava]-NH2
modifications: N-terminus assumed
SMILES: CCCC[C@H](NC(=O)[C@@H](NC(=O)[C@H](CC(=O)O)NC(=O)[C@H](CCC(N)=O)NC(=O)[C@H](CC(C)C)NC(=O)[C@H](CC(C)C)NC(=O)[C@H](CCCN)NC(=O)[C@H](CCCNC(=N)N)NC(=O)[C@H](C)NC(=O)[C@H](CO)NC(=O)[C@H](CC(C)C)NC(=O)[C@H](CCC(N)=O)NC(=O)[C@H](CC)NC(=O)[C@H](CC(C)C)NC(=O)[C@@H](NC(=O)[C@H](CCCN)NC(=O)[C@H](CCCNC(=N)N)NC(=O)[C@H](Cc1ccc(O)cc1)NC(=O)[C@H](CO)NC(=O)[C@H](CCC(N)=O)NC(=O)[C@@H](NC(=O)[C@H](Cc1ccccc1)NC(=O)[C@@H](NC(=O)[C@H](C)NC(=O)[C@H](CC(=O)O)NC(=O)[C@@H](C)NC(=O)[C@H](Cc1ccc(O)cc1)NC)[C@@H](C)CC)[C@@H](C)O)C(C)C)[C@@H](C)CC)C(=O)N[C@@H](CC(=O)O)C(=O)N[C@@H](CCCNC(=N)N)C(=O)NCCCCC(N)=O
notes: also called MR-326; Peptide 22326

These binders were tested against T1, GHRH receptor (membrane receptors of …) (assay: competition with 125I-JV-1-42, human pituitary membranes).
Source text: Normal human pituitaries were purchased from the National Hormone and Peptide Program (A. F. Parlow, Los Angeles, County Harbor-UCLA Medical Center, Torrance, Calif.).

Binder	IC50 [nM]	Relative affinity (Binding potency) vs JI-38 [JI-38 = 1]
B1	3.44	1.26
[NMeY][dA]DAIFTNSYR[Orn]VL[Abu]QLSAR[Orn]LLQDI[Nle]D[Agmatine] (also called Peptide 20367) [P-20367 [N-Me-Tyr^1, D-Ala^2, Orn^12, Abu^15, Orn^21, Nle^27, Asp^28, Agm^29]hGHRH(1-29)NH2]	1.7	2.56
[NMeY][dA]DAIFTNSYR[Orn]VL[Abu]QLSAR[Orn]LLQDI[Nle]DR-NHMe (also called MR-409; Peptide 27409) [P-27409 [N-Me-Tyr^1, D-Ala^2, Orn^12, Abu^15, Orn^21, Nle^27, Asp^28]hGHRH(1-29)NH-CH3]	1.06	4.1
[NMeY][dA]DAIFTNSYR[Orn]VL[Abu]QLSAR[Orn]LLQDI[Nle]DR-NHEt (also called MR-421; Peptide 28421) [P-28421 [N-Me-Tyr^1, D-Ala^2, Orn^12, Abu^15, Orn^21, Nle^27, Asp^28]hGHRH(1-29)NH-CH2-CH3]	1.47	2.96
[NMeY][dA]DAIFTTSYR[Orn]VL[Abu]QLSAR[Orn]LLQDI[Nle]DR-NHMe (also called MR-410; Peptide 27410) [P-27410 [N-Me-Tyr^1, D-Ala^2, Thr^8, Orn^12, Abu^15, Orn^21, Nle^27, Asp^28]hGHRH(1-29)NH-CH3]	0.83	5.24
[NMeY][dA]DAIFTQSYR[Orn]VL[Abu]QLSAR[Orn]LLQDI[Nle]D[Agmatine] (also called Peptide 20361) [P-20361 [N-Me-Tyr^1, D-Ala^2, Gln^8, Orn^12, Abu^15, Orn^21, Nle^27, Asp^28, Agm^29]hGHRH(1-29)NH2]	0.82	5.3
[NMeY][dA]DAIFTQSYR[Orn]VL[Abu]QLSAR[Orn]LLQDI[Nle]DR-NHMe [P-27403 [N-Me-Tyr^1, D-Ala^2, Gln^8, Orn^12, Abu^15, Orn^21, Nle^27, Asp^28]hGHRH(1-29)NH-CH3]	0.16	27.2
B2	0.55	7.91
B3	2.74	1.59
B4	0.71	6.12
[NMeY][dA]DAIFTQSYR[Orn]VL[Abu]QLSAR[Orn]LLQDI[Nle]DR-NHEt (also called MR-420; Peptide 28420) [P-28420 [N-Me-Tyr^1, D-Ala^2, Gln^8, Orn^12, Abu^15, Orn^21, Nle^27, Asp^28]hGHRH(1-29)NH-CH2-CH3]	0.52	8.37

These binders were tested against T1, GHRH receptor (membrane receptors of …) (assay: competition with 125I-[His1,Nle27]hGHRH(1-32)NH2, human pituitary membranes).
Source text: Normal human pituitary was purchased from the National Hormone and Peptide Program (UCLA Medical Center, Torrance, Calif.).

Binder	IC50 [nM]	Relative affinity (Binding potency) compared to JI-38 [JI-38 = 1]	Relative affinity (Binding potency) compared to hGHRH(1-29)
B1	3.87	0.71	1.98 hGHRH(1-29)NH2 = 1
[NMeY][dA]DAIFTNSYR[Orn]VL[Abu]QLSAR[Orn]LLQDI[Nle]D[Agmatine] (also called Peptide 20367) [P-20367 [N-Me-Tyr^1, D-Ala^2, Orn^12, Abu^15, Orn^21, Nle^27, Asp^28, Agm^29]hGHRH(1-29)NH2]	1.09	2.51	7.01 hGHRH(1-29)NH2 = 1
[NMeY][dA]DAIFTNSYR[Orn]VL[Abu]QLSAR[Orn]LLQDI[Nle]DR-NHMe (also called MR-409; Peptide 27409) [P-27409 [N-Me-Tyr^1, D-Ala^2, Orn^12, Abu^15, Orn^21, Nle^27, Asp^28]hGHRH(1-29)NH-CH3]	1.01	2.71	7.57 hGHRH(1-29)NH2 = 1
[NMeY][dA]DAIFTNSYR[Orn]VL[Abu]QLSAR[Orn]LLQDI[Nle]DR-NHEt (also called MR-421; Peptide 28421) [P-28421 [N-Me-Tyr^1, D-Ala^2, Orn^12, Abu^15, Orn^21, Nle^27, Asp^28]hGHRH(1-29)NH-CH2-CH3]	3.05	0.9	2.5 hGHRH(1-29)NH2 = 1
[NMeY][dA]DAIFTTSYR[Orn]VL[Abu]QLSAR[Orn]LLQDI[Nle]DR-NHMe (also called MR-410; Peptide 27410) [P-27410 [N-Me-Tyr^1, D-Ala^2, Thr^8, Orn^12, Abu^15, Orn^21, Nle^27, Asp^28]hGHRH(1-29)NH-CH3]	1.28	2.14	5.98 hGHRH(1-29)NH2 = 1
[NMeY][dA]DAIFTQSYR[Orn]VL[Abu]QLSAR[Orn]LLQDI[Nle]D[Agmatine] (also called Peptide 20361) [P-20361 [N-Me-Tyr^1, D-Ala^2, Gln^8, Orn^12, Abu^15, Orn^21, Nle^27, Asp^28, Agm^29]hGHRH(1-29)NH2]	1.19	2.3	6.42 hGHRH(1-29)NH2 = 1
[NMeY][dA]DAIFTQSYR[Orn]VL[Abu]QLSAR[Orn]LLQDI[Nle]DR-NHMe [P-27403 [N-Me-Tyr^1, D-Ala^2, Gln^8, Orn^12, Abu^15, Orn^21, Nle^27, Asp^28]hGHRH(1-29)NH-CH3]	0.74	3.69	10.3 hGHRH(1-29)NH2 = 1
B2	6.32	0.53	1.21 hGHRH(1-29)NH2 = 1
B3	2.6	1.05	2.94 hGHRH(1-29)NH2 = 1
B4	0.98	2.8	7.81 hGHRH(1-29)NH2 = 1
[NMeY][dA]DAIFTQSYR[Orn]VL[Abu]QLSAR[Orn]LLQDI[Nle]DR-NHEt (also called MR-420; Peptide 28420) [P-28420 [N-Me-Tyr^1, D-Ala^2, Gln^8, Orn^12, Abu^15, Orn^21, Nle^27, Asp^28]hGHRH(1-29)NH-CH2-CH3]	2.7	1.01	2.83 hGHRH(1-29)NH2 = 1
